For test [1], the target named is IL-15R on human PBMCs (NK cells, CD8+ T cells, CD4+ T cells) (human). Put plainly: cell-based or functional assay.
The target of test [2] is IL-2/IL-15 receptor on IL-2/IL-15-responsive HEK293 cells (human CD25 (IL-2Rα), CD122 (IL-2Rβ), CD132 (IL-2Rγ)) (human) (UniProt P01589). Briefly: cell-based or functional assay.
Chain of IL-2/IL-15 receptor on IL-2/IL-15-responsive HEK293 cells (human CD25 (IL-2Rα), CD122 (IL-2Rβ), CD132 (IL-2Rγ)) (human) (P01589 22-272, chain 1 of 3): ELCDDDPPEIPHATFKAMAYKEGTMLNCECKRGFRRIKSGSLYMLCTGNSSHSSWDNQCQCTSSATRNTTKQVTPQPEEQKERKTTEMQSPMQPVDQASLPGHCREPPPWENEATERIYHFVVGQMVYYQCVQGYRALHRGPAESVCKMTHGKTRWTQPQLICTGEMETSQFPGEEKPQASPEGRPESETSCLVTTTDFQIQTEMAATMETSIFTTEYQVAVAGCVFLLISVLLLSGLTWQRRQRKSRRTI
Chain of IL-2/IL-15 receptor on IL-2/IL-15-responsive HEK293 cells (human CD25 (IL-2Rα), CD122 (IL-2Rβ), CD132 (IL-2Rγ)) (human) (P14784 27-551, chain 2 of 3, further chain): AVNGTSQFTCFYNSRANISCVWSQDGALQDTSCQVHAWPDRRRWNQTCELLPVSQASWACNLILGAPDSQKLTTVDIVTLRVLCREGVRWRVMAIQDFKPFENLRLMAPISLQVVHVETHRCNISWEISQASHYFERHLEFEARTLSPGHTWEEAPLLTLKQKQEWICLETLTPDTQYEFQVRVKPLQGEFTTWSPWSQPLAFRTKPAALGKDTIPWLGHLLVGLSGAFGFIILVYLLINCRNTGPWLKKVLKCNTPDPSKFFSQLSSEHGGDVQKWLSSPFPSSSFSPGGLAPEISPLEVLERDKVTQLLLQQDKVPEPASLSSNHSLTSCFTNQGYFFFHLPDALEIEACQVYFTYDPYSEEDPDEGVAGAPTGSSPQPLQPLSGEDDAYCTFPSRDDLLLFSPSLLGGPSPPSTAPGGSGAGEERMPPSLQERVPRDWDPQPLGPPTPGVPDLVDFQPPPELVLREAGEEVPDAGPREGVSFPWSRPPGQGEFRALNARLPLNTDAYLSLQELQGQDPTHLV
Chain of IL-2/IL-15 receptor on IL-2/IL-15-responsive HEK293 cells (human CD25 (IL-2Rα), CD122 (IL-2Rβ), CD132 (IL-2Rγ)) (human) (P31785 23-369, chain 3 of 3, further chain): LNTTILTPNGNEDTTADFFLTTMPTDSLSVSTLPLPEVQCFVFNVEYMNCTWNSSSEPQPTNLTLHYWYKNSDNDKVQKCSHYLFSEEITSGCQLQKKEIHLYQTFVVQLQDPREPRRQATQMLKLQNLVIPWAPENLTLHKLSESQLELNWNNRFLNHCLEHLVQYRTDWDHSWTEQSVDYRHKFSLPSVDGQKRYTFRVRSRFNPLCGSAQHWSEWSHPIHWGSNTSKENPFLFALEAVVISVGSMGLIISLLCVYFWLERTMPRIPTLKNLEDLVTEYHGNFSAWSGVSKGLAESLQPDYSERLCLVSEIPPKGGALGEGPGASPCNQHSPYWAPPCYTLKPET

As for “PeproTech IL-15 (Recombinant human IL-15, available from PeproTech, Catalog #200-15) (from UniProt P40933 49-162) (ligand)”, in test [1], the EC50: Human PBMC Proliferation Ki67, CD4 is 121 pM; the EC50: Human PBMC Proliferation Ki67, CD8 amounted to 221 pM; the EC50: Human PBMC Proliferation Ki67, NK Cells was found to be 4 pM; the EC50: Human PBMC STAT5 Phosphorylation, CD4 is 6.97 pM. In test [1], this substance came in with an EC50: Human PBMC STAT5 Phosphorylation, CD8 of 6.4 pM and an EC50: Human PBMC STAT5 Phosphorylation, NK cells of 1.79 pM. In test [2], this substance registered an EC50: HEK-Blue Reporter Assay of 1.48 pM and an EC50: HEK-Blue Reporter Assay (average, n>3) of 1.46 pM.

For the origin of these results see patent publication US20240400630A1.
